Laboratory results: US20070299013A1 (CLEVELAND STATE UNIVERSITY, published 2007)
Each block holds one binder with its values, some of them ahead of it. Where no end group is shown, it is not given here. [ ]: non-standard residue; d: D form. sY = N[C@@H](Cc1ccc(OS(=O)(=O)O)cc1)C(=O)O

What was measured:
human prothrombin [1] = molecular target: T1, human prothrombin (human, UniProt P00734 44-622); test: kinetic analysis of prothrombinase inhibition
T1 construct: Zymogen substrate of prothrombinase; also called factor II

[2] = molecular target: T2, N-alpha-[(acetylthio)acetyl]-Phe-Pro-Arg-thrombin (ATA-FPR-thrombin) coupled to agarose through the active … (UniProt P00734 328-622); test: chromatography on 2.5 ml thrombin-agarose, LC/MS of fraction #7 (before the salt elution)
Description: (§1) Since some of the peptides contain aromatic amino acid residues, their concentration was also measured by optical density.
(§2) Each run represents 400 μg of peptide. […] Elution was performed with 2M NaCl and was started at the point indicated by the arrow (fraction #30). The presence of the peptides in the corresponding fractions was monitored by absorbance at 280 nm (shown on the y axis) and by LC/MS (inset).

[3] = molecular target: T2, N-alpha-[(acetylthio)acetyl]-Phe-Pro-Arg …; test: chromatography on 2.5 ml thrombin-agarose, LC/MS of fractions
Description: as §1, §2

human prothrombin [4] = molecular target: T1, human prothrombin; test: cell-based or functional assay
human prothrombin [5] = molecular target: T1, human prothrombin; test: calculated from IC50 (1.6 µM) of prothrombinase inhibition, IC50=Ki(1+S0/Km)
Description: All experiments were performed in triplicates or as indicated. The concentration of each peptide given in the figures and figure legends is their final concentration in the assay. The data were stored using the software FL WinLab (Perkin-Elmer Corp, Norwalk Conn.) and further analyzed and plotted with the software Prizm (GraphPad, San Diego, Calif.). In some cases the data were also analyzed and plotted using DeltaGraph (DeltaPoint, Monterey, Calif.).

human prothrombin [6] = molecular target: T1, human prothrombin; test: calculated from IC50 of prothrombinase inhibition, IC50=Ki(1+S0/Km), Km 0.4 µM, prothrombin 350 nM
Description: The buffer used in all cases was composed of 20 mM Hepes, 0.15 M NaCl, 5 mM CaCl₂, pH 7.4 [HBS(Ca²⁺), “assay buffer”]. […] All experiments were performed in triplicates or as indicated. The concentration of each peptide given in the figures and figure legends is their final concentration in the assay. The data were stored using the software FL WinLab (Perkin-Elmer Corp, Norwalk Conn.) and further analyzed and plotted with the software Prizm (GraphPad, San Diego, Calif.). In some cases the data were also analyzed and plotted using DeltaGraph (DeltaPoint, Monterey, Calif.).

[7] = molecular target: T2, N-alpha-[(acetylthio)acetyl]-Phe-Pro-Arg …; test: chromatography on 2.5 ml thrombin-agarose, A280
Description: as §1, §2

B1: double sulfonated peptide DYDYQ (1, 2), DY(-SO3)DY(-SO3)Q (peptide)
peptide: D[sY]D[sY]Q
notes: Sulfonated form of the factor Va 695-699 motif; also called D5Q1,2
- binding result (human prothrombin [1]): binds

Binder: NRLAAALGIR (Last of five overlapping 10-mers) [HC5 peptide (from region 680-709 of human factor Va heavy chain)]
- binding result [2]: no binding (tested: 400 µg of peptide)

Binder: KMHDRLEPED (First of five overlapping 10-mers) [HC1 peptide (from region 680-709 of human factor Va heavy chain)]
- binding result [3]: no binding (tested: 400 µg of peptide)

Binder: EESDADYDYQ (Synthetic 10-residue peptide) [HC3 peptide (amino acid region 690-699 of human factor Va heavy chain)]
- IC50 of inhibition of prothrombinase activity (DAPA thrombin formation assay) (human prothrombin [4]): 12 µM
- Ki (human prothrombin [6]): 6.3 µM

Binder: DYDYQNRLAA (Synthetic 10-residue peptide) [HC4 peptide (amino acid residues 695-704 of human factor Va heavy chain)]
- IC50 of inhibition of prothrombinase activity (DAPA thrombin formation assay) (human prothrombin [4]): 10 µM
- Ki (human prothrombin [6]): 5.3 µM

The remaining lines, values ahead:

- IC50 of inhibition of prothrombinase function (human prothrombin [4]): 1.6 µM
- Ki (human prothrombin [5]): 0.85 µM
B2: pentapeptide DYDYQ (Asp695-Tyr696-Asp697-Tyr698-Gln699 of human factor Va heavy chain) (peptide)
peptide: DYDYQ
notes: Synthetic, non-sulfonated pentapeptide; also called D5Q

- binding result [3]: no binding (tested: 400 µg of peptide)
Binder: LEPEDEESDA [HC2 peptide (from region 680-709 of human factor Va heavy chain)]

- binding result [7]: no binding (tested: 400 µg of peptide)
B3: P15H control pentadecapeptide (amino acid sequence 337-351 from the middle portion of human factor Va heavy chain) (peptide)
peptide: PVIPANMDKKYRSQH
notes: Negative control peptide; also called control peptide
